{
  "source": "patent US6699869",
  "about": "(MYRIAD GENETICS, dated 2004)",
  "assay_in_all_cases": "cell-based or functional assay",
  "key": {"[1]": {"biological_target": "bovine trypsin (from Sigma) (bovine, UniProt P00760 24-246)", "sequence (P00760 24-246)": "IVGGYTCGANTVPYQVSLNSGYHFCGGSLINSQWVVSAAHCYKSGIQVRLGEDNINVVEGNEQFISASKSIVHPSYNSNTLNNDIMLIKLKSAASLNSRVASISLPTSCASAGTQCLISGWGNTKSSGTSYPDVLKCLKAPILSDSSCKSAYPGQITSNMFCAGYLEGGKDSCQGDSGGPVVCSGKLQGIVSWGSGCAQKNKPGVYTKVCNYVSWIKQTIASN"}, "[2]": {"biological_target": "Tissue Plasminogen Activator (t-PA)"}, "[3]": {"biological_target": "human urokinase (from Sigma) (human, UniProt P00749 21-431, limits assumed)"}, "Plasmin": {"biological_target": "Plasmin"}, "[4]": {"biological_target": "bovine factor Xa (from Sigma) (bovine, UniProt P00743 41-492, limits assumed)", "sequence (P00743 41-492 limits assumed)": "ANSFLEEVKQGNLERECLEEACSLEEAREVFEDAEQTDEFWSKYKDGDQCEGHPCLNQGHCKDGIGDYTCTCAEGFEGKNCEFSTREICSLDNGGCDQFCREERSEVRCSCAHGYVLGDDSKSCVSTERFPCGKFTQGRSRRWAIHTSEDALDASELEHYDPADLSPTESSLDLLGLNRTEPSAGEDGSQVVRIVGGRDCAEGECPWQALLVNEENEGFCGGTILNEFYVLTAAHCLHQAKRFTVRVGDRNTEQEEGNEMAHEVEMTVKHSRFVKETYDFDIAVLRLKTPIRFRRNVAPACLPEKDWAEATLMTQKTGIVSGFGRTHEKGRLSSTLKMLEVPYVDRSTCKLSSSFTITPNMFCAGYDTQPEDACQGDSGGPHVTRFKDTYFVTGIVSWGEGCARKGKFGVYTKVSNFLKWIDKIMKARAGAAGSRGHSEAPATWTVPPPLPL"}, "[5]": {"biological_target": "human Factor VIIa (FVIIa) and human tissue factor (TF) complex (human, UniProt P08709 61-466; P13726 33-251, limits assumed)"}},
  "note": "Non-standard residues stand in square brackets, D forms with d. No end group written: not given here. *: point of attachment. CH2Cl = ClC*",
  "data": [
    {"binder": "[dF]-Pro-Arg-CH2Cl", "note": "[(D)FPR-CH2Cl]", "values": [
      {"measurement": "IC50 (nM), inhibition of chromogenic substrate hydrolysis by the enzyme", "setting": "[1]", "result": 212, "unit": "nM"},
      {"measurement": "IC50 (nM), inhibition of chromogenic substrate hydrolysis by the enzyme", "setting": "[2]", "result": 106, "unit": "nM"},
      {"measurement": "IC50 (nM), inhibition of chromogenic substrate hydrolysis by the enzyme", "setting": "[3]", "result": 508, "unit": "nM"},
      {"measurement": "IC50 (nM), inhibition of chromogenic substrate hydrolysis by the enzyme", "setting": "Plasmin", "result": 699, "unit": "nM"},
      {"measurement": "IC50 (nM), inhibition of chromogenic substrate hydrolysis by the enzyme", "setting": "[4]", "result": 165, "unit": "nM"},
      {"measurement": "IC50 (nM), inhibition of chromogenic substrate hydrolysis by the enzyme", "setting": "[5]", "result": 200, "unit": "nM"}
    ]}
  ]
}
